Data from patent US6803203B1, “DNA-PK assay” (Brookhaven Science Associates, priority 1993, dated 2004).
Entries after “also recorded” stand apart in the source; their conditions may differ. No end group written: not given here.

How the values were obtained:
DNA-PK [1] = assay: DNA-PK activity in extracts of rat cells; type: biochemical; conditions: Rat REF, peptide 0.2 mM; for Specific Activity + DNA: + calf thymus DNA 10 μg/ml; for Specific Activity − DNA: no added DNA
Procedure: (§1) Extracts of additional primate and rodent cells were tested for the presence of DNA-PK activity in accordance with the method of the present invention. The DNA-PK activity was determined using the methods described in Examples 1, 4 and 5 for seven human cell lines, two African green monkey kidney lines, and six rodent cell lines.
(§2) Extracts were prepared essentially as described in Example 10. Cells were lysed by freezing and thawing in hypotonic buffer; soluble (S10) “cytoplasmic” and insoluble in (P10) “nuclear” fractions were made by centrifuging lysates at 10,000×g for 10 min. The insoluble fraction was extracted with buffer containing 0.5 M KCl, which releases any DNA-PK that is bound to DNA. After centrifugation of the salt-washed pellet fraction, which removed the remaining insoluble material, the salt extract (P10S) was diluted and assayed as previously described.
(§3) Protein concentrations, determined using the Bio-Rad dye binding assay, were between 0.3 and 6 mg/ml. Extracts were incubated at 30° C. for 10 min with each peptide at 0.2 mM in the absence of added DNA (−DNA) or with 10 μg/ml calf thymus DNA (+DNA). After incubation the reaction mixtures were acidified with an equal volume of 30% acetic acid and spotted on to Whatman P-81 phosphocellulose paper (Whatman, Inc., Clifton, N.J.). The filters then were washed extensively in 15% acetic acid before the adsorbed radioactivity was quantitated as described in Example 5.
(§4) The amount of phosphate incorporated was calculated from the specific activity of the ATP. The rate of phosphate incorporation into the Ser-Gln-Glu peptide (Table 1) (SEQ ID NO: 11) in the presence of calf thymus DNA was approximately linear throughout the 10 minute reaction incubation period. Parallel assays were performed without added peptide, and these background values were subtracted to produce the activities that are shown in Table 3. Background values varied but, in all cases, were less than 0.2 nmol/min/mg (a few percent of the activity present in human cells). The specific activities were calculated from the total activity in the two fractions divided by the total protein in the two fractions. The percent of total DNA-PK activity in the S10 and P10S fractions was determined with peptide (SEQ ID NO: 11) in the presence of added calf thymus DNA. Extracts without substantial DNA-PK activity were examined for their ability to inhibit purified DNA-PK. Inhibitory activity was not detected.

DNA-PK [2] = assay: DNA-PK activity in extracts of monkey cell lines; type: biochemical, African green monkey; conditions: peptide 0.2 mM; for Specific Activity + DNA: + calf thymus DNA 10 μg/ml; for Specific Activity − DNA: no added DNA
Procedure: as §1, §2, §3, §4

DNA-PK [3] = molecular target: T1, DNA-PK (Homo sapiens, UniProt P78527); assay: Phosphorylation of synthetic peptides by purified DNA-PK (phosphocellulose paper binding method); type: biochemical
T1 construct: DNA-PK was purified from HeLa cells; endogenous in cells; host or cells: HeLa S3 cells; the endogenous enzyme was purified in house by chromatography
Procedure: Phenylmethylsulfonyl fluoride was added to the S10 (10,000×g) supernatant as a powder to 0.5 mM. DNA-PK activity was found in the 100,000×g (ribosomal) pellet. DNA-PK preparations typically were made from 200 ml of S10 supernatant that had been derived from approximately 10^10 cells. All steps were performed at 4° C. unless indicated otherwise.
Phosphorylation reactions were performed in a 20- or 40-μl final volume as previously described by Chen, et al., J. Virol., 10:5131-5140 (1991) and Lees-Miller, et al., Mol. Cell. […] In particular, in addition to synthetic peptide substrates or protein substrates, the assays contained 50 mM HEPES (pH 7.5), 100 mM KCl, 10 mM MgCl2, 2 mM EGTA, 0.1 mM EDTA and 0.125 mM ATP containing [^32P]ATP at 0.2 mCi/ml. […] Assays were started by adding 1 μl of kinase sample. Incubations were at 30° C. for 7 min.
For determinations of kinetic constants, the ATP concentration was 0.5 mM. When present, hsp90 was included at 0.5 mg/ml. Assay mixtures were preincubated at 30° C. for 2 min before addition of 0.1 to 0.5 μg (protein) of the DNA-PK preparation.
In particular, kinase reactions were stopped by adding an equal volume of 30% acetic acid, and portions of the acidified reaction were spotted on 2- by 2-cm squares of P-81 paper (Whatman, Inc., Clifton, N.J.). […] The P-81 squares were then transferred to scintillation vials containing 3.5 ml of water, and bound radioactivity was determined from the Cerenkov radiation. Enzyme activity was calculated from triplicate determinations, using the specific activity of the ATP and the protein concentration, which was determined by the Bio-Rad dye-binding assay (Bio-Rad (Bradford) Protein Assay Kit 1, Cat. No. 500-001, Bio-Rad Laboratories, Hercules, Calif.), using bovine serum albumin as the standard. […] The kinetic constants, Km and Vmax for each peptide sequence were calculated from plots of 1/[S] versus 1/V, the values reported are averages of at least two independent determinations.

DNA-PK [4] = molecular target: T1, DNA-PK; assay: Poorer substrate peptides added to (SEQ ID NO: 8) phosphorylation assays; type: biochemical; conditions: peptide up to 250 μM; (SEQ ID NO: 8) at 100 μM
DNA-PK [5] = molecular target: T1, DNA-PK; assay: DNA-PK activity in extracts of human cell lines; type: biochemical; conditions: for Specific Activity + DNA: + calf thymus DNA 10 μg/ml; for Specific Activity + DNA / Specific Activity − DNA: peptide 0.2 mM; for Specific Activity − DNA: no added DNA
Procedure: as §1, §2, §3, §4

DNA-PK [6] = assay: DNA-PK activity in extracts of hamster cell lines; type: biochemical, Chinese hamster; conditions: peptide 0.2 mM; for Specific Activity + DNA: + calf thymus DNA 10 μg/ml; for Specific Activity − DNA: no added DNA
Procedure: as §1, §2, §3, §4

PO4 incorp. (DNA-PK [3]; each peptide at 200 μM, calf thymus DNA 10 μg/ml, 30° C.): 0 pmol/min/μg of DNA-PK | Specific Activity + DNA (DNA-PK [5]; Human 293-S, P10S): 0.04 nmol PO4/min/mg protein | Specific Activity − DNA (DNA-PK [5]; Human 293-S, P10S): 0.0 nmol PO4/min/mg protein | Specific Activity + DNA (DNA-PK [5]; Human 293-S, S10): 0.01 nmol PO4/min/mg protein | Specific Activity − DNA (DNA-PK [5]; Human 293-S, S10): 0.0 nmol PO4/min/mg protein | Specific Activity + DNA (DNA-PK [5]; Human A549, P10S): 0.01 nmol PO4/min/mg protein | Specific Activity − DNA (DNA-PK [5]; Human A549, P10S): 0.06 nmol PO4/min/mg protein | Specific Activity + DNA (DNA-PK [5]; Human A549, S10): 0.0 nmol PO4/min/mg protein | Specific Activity − DNA (DNA-PK [5]; Human A549, S10): 0.02 nmol PO4/min/mg protein | Specific Activity + DNA (DNA-PK [5]; Human HPB-ALL, P10S): 0.05 nmol PO4/min/mg protein | Specific Activity − DNA (DNA-PK [5]; Human HPB-ALL, P10S): 0.04 nmol PO4/min/mg protein | Specific Activity + DNA (DNA-PK [5]; Human HPB-ALL, S10): 0.0 nmol PO4/min/mg protein | Specific Activity − DNA (DNA-PK [5]; Human HPB-ALL, S10): 0.04 nmol PO4/min/mg protein | Specific Activity + DNA (DNA-PK [5]; Human HeLa-JW, P10S): 0.1 nmol PO4/min/mg protein | Specific Activity − DNA (DNA-PK [5]; Human HeLa-JW, P10S): 0.0 nmol PO4/min/mg protein | Specific Activity + DNA (DNA-PK [5]; Human HeLa-JW, S10): 0.1 nmol PO4/min/mg protein | Specific Activity − DNA (DNA-PK [5]; Human HeLa-JW, S10): 0.0 nmol PO4/min/mg protein | Specific Activity + DNA (DNA-PK [5]; Human MRC 5, P10S): 0.04 nmol PO4/min/mg protein | Specific Activity − DNA (DNA-PK [5]; Human MRC 5, P10S): 0.02 nmol PO4/min/mg protein | Specific Activity + DNA (DNA-PK [5]; Human MRC 5, S10): 0.30 nmol PO4/min/mg protein | Specific Activity − DNA (DNA-PK [5]; Human MRC 5, S10): 0.11 nmol PO4/min/mg protein | Specific Activity + DNA (DNA-PK [5]; Human Raji, P10S): 0.0 nmol PO4/min/mg protein | Specific Activity − DNA (DNA-PK [5]; Human Raji, P10S): 0.0 nmol PO4/min/mg protein | Specific Activity + DNA (DNA-PK [5]; Human Raji, S10): 0.0 nmol PO4/min/mg protein | Specific Activity − DNA (DNA-PK [5]; Human Raji, S10): 0.08 nmol PO4/min/mg protein | Specific Activity + DNA (DNA-PK [5]; Human T98G, P10S): 0.0 nmol PO4/min/mg protein | Specific Activity − DNA (DNA-PK [5]; Human T98G, P10S): 0.0 nmol PO4/min/mg protein | Specific Activity + DNA (DNA-PK [5]; Human T98G, S10): 0.01 nmol PO4/min/mg protein | Specific Activity − DNA (DNA-PK [5]; Human T98G, S10): 0.01 nmol PO4/min/mg protein
Sequence: EPPLSEQAFADLWKK [SEQ ID NO: 20]
Specific Activity + DNA (DNA-PK [1]; P10S): 0.0 nmol PO4/min/mg protein | Specific Activity − DNA (DNA-PK [1]; P10S): 0.03 nmol PO4/min/mg protein | Specific Activity + DNA (DNA-PK [1]; S10): 0.0 nmol PO4/min/mg protein | Specific Activity − DNA (DNA-PK [1]; S10): 0.02 nmol PO4/min/mg protein | Specific Activity + DNA (DNA-PK [2]; Monkey COS-1, P10S): 0.24 nmol PO4/min/mg protein | Specific Activity − DNA (DNA-PK [2]; Monkey COS-1, P10S): 0.0 nmol PO4/min/mg protein | Specific Activity + DNA (DNA-PK [2]; Monkey COS-1, S10): 0.02 nmol PO4/min/mg protein | Specific Activity − DNA (DNA-PK [2]; Monkey COS-1, S10): 0.0 nmol PO4/min/mg protein | Specific Activity + DNA (DNA-PK [2]; Monkey CV-1, P10S): 0.08 nmol PO4/min/mg protein | Specific Activity − DNA (DNA-PK [2]; Monkey CV-1, P10S): 0.08 nmol PO4/min/mg protein | Specific Activity + DNA (DNA-PK [2]; Monkey CV-1, S10): 0.05 nmol PO4/min/mg protein | Specific Activity − DNA (DNA-PK [2]; Monkey CV-1, S10): 0.0 nmol PO4/min/mg protein | substrate activity for DNA-PK (in words) (DNA-PK [3]): negligible substrate activity; also recorded: not phosphorylated by DNA-PK | inhibition of phosphorylation of (SEQ ID NO: 8) (DNA-PK [4]): None of these peptides significantly inhibited the phosphorylation | phosphorylation of the peptide by cell extracts (in words) (DNA-PK [5]; all extracts of Example 11, with or without added DNA): None of the extracts phosphorylated the Ser-Glu-Gln peptide (SEQ ID NO: 20) at a significant rate | Specific Activity + DNA (DNA-PK [6]; Hamster CHO, P10S): 0.06 nmol PO4/min/mg protein | Specific Activity − DNA (DNA-PK [6]; Hamster CHO, P10S): 0.0 nmol PO4/min/mg protein | Specific Activity + DNA (DNA-PK [6]; Hamster CHO, S10): 0.01 nmol PO4/min/mg protein | Specific Activity − DNA (DNA-PK [6]; Hamster CHO, S10): 0.0 nmol PO4/min/mg protein | Specific Activity + DNA (DNA-PK [6]; Hamster V79, P10S): 0.05 nmol PO4/min/mg protein | Specific Activity − DNA (DNA-PK [6]; Hamster V79, P10S): 0.05 nmol PO4/min/mg protein | Specific Activity + DNA (DNA-PK [6]; Hamster V79, S10): 0.0 nmol PO4/min/mg protein | Specific Activity − DNA (DNA-PK [6]; Hamster V79, S10): 0.0 nmol PO4/min/mg protein
